{"source": "patent US20240175001A1", "target": "SNAP-25 (rat) (UniProt P60881)", "sequence (P60881 whole entry)": "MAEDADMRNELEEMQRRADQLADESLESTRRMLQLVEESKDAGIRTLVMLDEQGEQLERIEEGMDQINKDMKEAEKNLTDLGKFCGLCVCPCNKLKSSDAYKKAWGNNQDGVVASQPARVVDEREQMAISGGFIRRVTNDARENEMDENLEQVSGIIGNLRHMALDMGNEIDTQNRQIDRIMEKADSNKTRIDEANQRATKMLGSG", "test": "cell-based or functional assay"}
{"substance": "native BoNT/A1 (LIST)", "values": [{"measurement": "pEC50 (percentage SNAP-25 cleavage in rat eSCN, 24 h, Western blot)", "result": 12.3}]}
